The text below walks through data of publication PMC4788097 (Structure (London, England : 1993), 2013).

Assay [1] has as its target T1, Stx6 (3-110) (human, UniProt O43752 3-110).
T1 sequence (looked up): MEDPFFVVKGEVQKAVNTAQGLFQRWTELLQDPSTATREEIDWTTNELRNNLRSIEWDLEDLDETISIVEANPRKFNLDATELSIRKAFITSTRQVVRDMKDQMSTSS
The assay can be described thus: crystal structure.

Assay [2] has as its target T1, Stx6 (3-110). The assay can be described thus: ITC. In general terms: In ITC the heat of successive injections is recorded.
Assay [3] addresses T2, Stx10 (1-110) (human, UniProt O60499 1-110).
T2 sequence (looked up): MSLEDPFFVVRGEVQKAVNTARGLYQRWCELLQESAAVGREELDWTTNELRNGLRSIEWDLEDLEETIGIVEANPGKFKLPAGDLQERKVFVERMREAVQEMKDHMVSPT
Kind of assay: ITC.

For the molecule AHGMLKLYYGLSEGEAA [Ang2 peptide 33AHGMLKLYYGLSEGEAA49], in assay [1], the binding result is recorded as “binds”.

B1: Ang2 (1-69) (domain or fragment, human, UniProt Q9UID3 1-69, looked up)
chain: MAAAAAAGPSPGSGPGDSPEGPEGEAPERRRKAHGMLKLYYGLSEGEAAGRPAGPDPLDPTDLNGAHFD
In general, Kd refers to the concentration at which binding is half-saturated. Read a high Kd as weaker binding. For orientation: stoichiometry N means a count of units in the complex or per binding partner. Take B1: in assay [2], the dissociation constant Kd was 5.6 ± 0.7 µM and the “stoichiometry N” value stood at 0.8. For the same molecule, in assay [3], binding was characterised by a dissociation constant (Kd) of 6.5 ± 0.8 µM and the “stoichiometry N” value was 0.7.
